This is an account of results in patent US20110158985A1.

For this assay, the target named is F protein of RSV (Long strain) (RSV (Long strain)) (UniProt P12568). Nature of the assay: cell-based or functional assay.
F protein of RSV (Long strain) (RSV (Long strain)), sequence (P12568 26-574): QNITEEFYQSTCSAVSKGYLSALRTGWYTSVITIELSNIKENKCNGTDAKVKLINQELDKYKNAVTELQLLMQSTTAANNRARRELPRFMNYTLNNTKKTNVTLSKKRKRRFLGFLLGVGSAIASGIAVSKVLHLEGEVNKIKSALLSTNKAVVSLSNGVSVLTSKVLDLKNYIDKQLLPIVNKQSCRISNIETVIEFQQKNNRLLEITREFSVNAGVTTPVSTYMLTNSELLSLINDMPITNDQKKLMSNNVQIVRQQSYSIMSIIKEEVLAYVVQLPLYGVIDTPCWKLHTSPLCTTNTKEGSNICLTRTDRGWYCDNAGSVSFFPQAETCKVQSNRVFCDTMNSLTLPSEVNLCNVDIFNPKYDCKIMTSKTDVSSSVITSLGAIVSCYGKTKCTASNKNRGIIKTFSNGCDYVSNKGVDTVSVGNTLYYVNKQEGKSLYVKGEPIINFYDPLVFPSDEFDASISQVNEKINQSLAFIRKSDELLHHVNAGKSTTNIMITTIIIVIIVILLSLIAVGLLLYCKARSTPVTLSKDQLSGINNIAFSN

palivizumab F(ab')2, sequence (VH): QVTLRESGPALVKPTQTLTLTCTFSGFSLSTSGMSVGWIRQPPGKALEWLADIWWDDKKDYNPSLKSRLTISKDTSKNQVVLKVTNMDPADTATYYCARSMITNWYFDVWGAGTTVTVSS
palivizumab F(ab')2, sequence (VL): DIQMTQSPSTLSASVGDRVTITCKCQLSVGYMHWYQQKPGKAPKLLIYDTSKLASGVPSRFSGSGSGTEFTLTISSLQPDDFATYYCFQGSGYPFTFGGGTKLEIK

As for palivizumab F(ab')2, the Microneutralization IC50 worked out at 1.4 nM.
